From the supplement of paper PMC5998384

Tests used:
HeLa Kyoto [1] = assay: solubility in G1/S (NP-40 vs SDS abundance) (log2 ratio); higher = more soluble; conditions: cell cycle stage: G1/S
HeLa Kyoto [2] = assay: solubility change mitosis vs G1/S (difference of NP-40 vs SDS log2 ratios) (log2 ratio difference); higher = more soluble in mitosis
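Throughout, for solubility change mitosis vs G1/S (difference of NP-40 vs SDS log2 ratios): synchronized HeLa Kyoto cells (double thymidine block for G1/S, nocodazole release for mitosis), protein amounts in NP-40 versus SDS lysates quantified by mass spectrometry, three biological replicates.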
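Throughout, for solubility in G1/S (NP-40 vs SDS abundance): HeLa Kyoto cells arrested at G1/S by double thymidine block, proteins quantified by TMT10plex mass spectrometry in mild NP-40 versus SDS extracts, three biological replicates.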

Chain of MAST2 (chain, as listed by the source): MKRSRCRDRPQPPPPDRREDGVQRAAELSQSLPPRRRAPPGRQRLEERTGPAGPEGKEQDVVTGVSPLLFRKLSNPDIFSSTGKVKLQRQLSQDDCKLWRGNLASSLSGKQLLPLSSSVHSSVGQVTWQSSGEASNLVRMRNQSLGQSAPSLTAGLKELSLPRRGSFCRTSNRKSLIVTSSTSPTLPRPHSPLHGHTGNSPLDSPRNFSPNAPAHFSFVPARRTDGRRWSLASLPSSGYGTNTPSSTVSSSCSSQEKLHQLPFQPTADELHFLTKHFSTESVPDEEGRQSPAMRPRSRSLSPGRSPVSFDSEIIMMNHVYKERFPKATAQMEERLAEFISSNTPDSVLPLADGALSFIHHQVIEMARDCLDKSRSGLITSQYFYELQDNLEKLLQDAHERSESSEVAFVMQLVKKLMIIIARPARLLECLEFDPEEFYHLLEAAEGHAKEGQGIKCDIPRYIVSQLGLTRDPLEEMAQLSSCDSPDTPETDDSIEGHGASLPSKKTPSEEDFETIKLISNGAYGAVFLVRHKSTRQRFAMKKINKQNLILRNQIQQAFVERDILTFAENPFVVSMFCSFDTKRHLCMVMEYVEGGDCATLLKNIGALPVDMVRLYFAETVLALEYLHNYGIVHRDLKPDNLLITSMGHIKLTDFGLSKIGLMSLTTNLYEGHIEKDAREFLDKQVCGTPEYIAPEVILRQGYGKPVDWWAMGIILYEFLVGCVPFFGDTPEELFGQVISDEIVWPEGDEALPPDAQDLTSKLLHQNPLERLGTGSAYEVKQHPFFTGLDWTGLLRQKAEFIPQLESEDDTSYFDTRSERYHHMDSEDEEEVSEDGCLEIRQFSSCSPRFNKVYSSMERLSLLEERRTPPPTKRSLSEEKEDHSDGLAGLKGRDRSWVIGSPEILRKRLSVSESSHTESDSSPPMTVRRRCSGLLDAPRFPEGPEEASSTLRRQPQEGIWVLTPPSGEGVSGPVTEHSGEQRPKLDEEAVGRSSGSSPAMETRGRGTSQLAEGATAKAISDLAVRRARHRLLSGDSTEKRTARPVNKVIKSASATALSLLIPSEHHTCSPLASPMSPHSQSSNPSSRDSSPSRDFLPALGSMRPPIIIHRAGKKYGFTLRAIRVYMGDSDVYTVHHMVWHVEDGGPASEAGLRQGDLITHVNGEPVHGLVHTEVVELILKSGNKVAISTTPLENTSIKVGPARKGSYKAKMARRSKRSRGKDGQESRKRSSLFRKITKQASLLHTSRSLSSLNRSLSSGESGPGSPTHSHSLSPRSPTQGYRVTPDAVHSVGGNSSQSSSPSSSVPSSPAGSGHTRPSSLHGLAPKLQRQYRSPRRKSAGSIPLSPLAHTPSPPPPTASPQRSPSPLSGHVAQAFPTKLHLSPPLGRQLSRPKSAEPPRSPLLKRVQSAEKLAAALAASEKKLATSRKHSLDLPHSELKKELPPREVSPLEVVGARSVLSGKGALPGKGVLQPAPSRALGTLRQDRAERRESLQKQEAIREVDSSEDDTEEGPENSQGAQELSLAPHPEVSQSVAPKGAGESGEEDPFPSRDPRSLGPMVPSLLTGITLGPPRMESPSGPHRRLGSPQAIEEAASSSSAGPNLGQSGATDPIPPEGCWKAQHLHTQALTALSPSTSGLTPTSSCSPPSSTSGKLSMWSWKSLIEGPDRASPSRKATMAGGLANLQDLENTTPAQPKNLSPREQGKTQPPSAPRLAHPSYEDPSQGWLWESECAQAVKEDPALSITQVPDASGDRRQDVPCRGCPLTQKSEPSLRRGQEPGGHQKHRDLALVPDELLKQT

Substance	solubility in G1/S (log2) (HeLa Kyoto [1])	solubility change mitosis (log2) (HeLa Kyoto [2])
MARKSNLPVLLVPFLLCQALVRCSSPLPLVVNTWPFKNATEAAWRALASGGSALDAVESGCAMCEREQCDGSVGFGGSPDELGETTLDAMIMDGTTMDVGAVGDLRRIKNAIGVARKVLEHTTHTLLVGESATTFAQSMGFINEDLSTTASQALHSDWLARNCQPNYWRNVIPDPSKYCGPYKPPGILKQDIPIHKETEDDRGHDTIGMVVIHKTGHIAAGTSTNGIKFKIHGRVGDSPIPGAGAYADDTAGAAAATGNGDILMRFLPSYQAVEYMRRGEDPTIACQKVISRIQKHFPEFFGAVICANVTGSYGAACNKLSTFTQFSFMVYNSEKNQPTEEKVDCI	0.0983	-0.136
MASEAPSPPRSPPPPTSPEPELAQLRRKVEKLERELRSCKRQVREIEKLLHHTERLYQNAESNNQELRTQVEELSKILQRGRNEDNKKSDVEVQTENHAPWSISDYFYQTYYNDVSLPNKVTELSDQQDQAIETSILNSKDHLQVENDAYPGTDRTENVKYRQVDHFASNSQEPASALATEDTSLEGSSLAESLRAAAEAAVSQTGFSYDENTGLYFDHSTGFYYDSENQLYYDPSTGIYYYCDVESGRYQFHSRVDLQPYPTSSTKQSKDKKLKKKRKDPDSSATNEEKDLNSEDQKAFSVEHTSCNEEENFANMKKKAKIGIHHKNSPPKVTVPTSGNTIESPLHENISNSTSFKDEKIMETDSEPEEGEITDSQTEDSYDEAITSEGNVTAEDSEDEDEDKIWPPCIRVIVIRSPVLQIGSLFIITAVNPATIGREKDMEHTLRIPEVGVSKFHAEIYFDHDLQSYVLVDQGSQNGTIVNGKQILQPKTKCDPYVLEHGDEVKIGETVLSFHIHPGSDTCDGCEPGQVRAHLRLDKKDESFVGPTLSKEEKELERRKELKKIRVKYGLQNTEYEDEKTLKNPKYKDRAGKRREQVGSEGTFQRDDAPASVHSEITDSNKGRKMLEKMGWKKGEGLGKDGGGMKTPIQLQLRRTHAGLGTGKPSSFEDVHLLQNKNKKNWDKARERFTENFPETKPQKDDPGTMPWVKGTLE [AGGF1]	-0.292	-0.0218
MASGDLYEVERIVDKRKNKKGKWEYLIRWKGYGSTEDTWEPEHHLLHCEEFIDEFNGLHMSKDKRIKSGKQSSTSKLLRDSRGPSVEKLSHRPSDPGKSKGTSHKRKRINPPLAKPKKGYSGKPSSGGDRATKTVSYRTTPSGLQIMPLKKSQNGMENGDAGSEKDERHFGNGSHQPGLDLNDHVGEQDMGECDVNHATLAENGLGSALTNGGLNLHSPVKRKLEAEKDYVFDKRLRYSVRQNESNCRFRDIVVRKEEGFTHILLSSQTSDNNALTPEIMKEVRRALCNAATDDSKLLLLSAVGSVFCSGLDYSYLIGRLSSDRRKESTRIAEAIRDFVKAFIQFKKPIVVAINGPALGLGASILPLCDIVWASEKAWFQTPYATIRLTPAGCSSYTFPQILGVALANEMLFCGRKLTAQEACSRGLVSQVFWPTTFSQEVMLRVKEMASCSAVVLEESKCLVRSFLKSVLEDVNEKECLMLKQLWSSSKGLDSLFSYLQDKIYEV [CDYL2]	-1.07	0.436
MASKKLGADFHGTFSYLDDVPFKTGDKFKTPAKVGLPIGFSLPDCLQVVREVQYDFSLEKKTIEWAEEIKKIEEAEREAECKIAEAEAKVNSKSGPEGDSKMSFSKTHSTATMPPPINPILASLQHNSILTPTRVSSSATKQKVLSPPHIKADFNLADFECEEDPFDNLELKTIDEKEELRNILVGTTGPIMAQLLDNNLPRGGSGSVLQDEEVLASLERATLDFKPLHKPNGFITLPQLGNCEKMSLSSKVSLPPIPAVSNIKSLSFPKLDSDDSNQKTAKLASTFHSTSCLRNGTFQNSLKPSTQSSASELNGHHTLGLSALNLDSGTEMPALTSSQMPSLSVLSVCTEESSPPNTGPTVTPPNFSVSQVPNMPSCPQAYSELQMLSPSERQCVETVVNMGYSYECVLRAMKKKGENIEQILDYLFAHGQLCEKGFDPLLVEEALEMHQCSEEKMMEFLQLMSKFKEMGFELKDIKEVLLLHNNDQDNALEDLMARAGAS [UBAP1]	0.435	0.147
MASKRKSTTPCMVRTSQVVEQDVPEEVDRAKEKGIGTPQPDVAKDSWAAELENSSKENEVIEVKSMGESQSKKLQGGYECKYCPYSTQNLNEFTEHVDMQHPNVILNPLYVCAECNFTTKKYDSLSDHNSKFHPGEANFKLKLIKRNNQTVLEQSIETTNHVVSITTSGPGTGDSDSGISVSKTPIMKPGKPKADAKKVPKKPEEITPENHVEGTARLVTDTAEILSRLGGVELLQDTLGHVMPSVQLPPNINLVPKVPVPLNTTKYNSALDTNATMINSFNKFPYPTQAELSWLTAASKHPEEHIRIWFATQRLKHGISWSPEEVEEARKKMFNGTIQSVPPTITVLPAQLAPTKVTQPILQTALPCQILGQTSLVLTQVTSGSTTVSCSPITLAVAGVTNHGQKRPLVTPQAAPEPKRPHIAQVPEPPPKVANPPLTPASDRKKTKEQIAHLKASFLQSQFPDDAEVYRLIEVTGLARSEIKKWFSDHRYRCQRGIVHITSESLAKDQLAIAASRHGRTYHAYPDFAPQKFKEKTQGQVKILEDSFLKSSFPTQAELDRLRVETKLSRREIDSWFSERRKLRDSMEQAVLDSMGSGKKGQDVGAPNGALSRLDQLSGAQLTSSLPSPSPAIAKSQEQVHLLRSTFARTQWPTPQEYDQLAAKTGLVRTEIVRWFKENRCLLKTGTVKWMEQYQHQPMADDHGYDAVARKATKPMAESPKNGGDVVPQYYKDPKKLCEEDLEKLVTRVKVGSEPAKDCLPAKPSEATSDRSEGSSRDGQGSDENEESSVVDYVEVTVGEEDAISDRSDSWSQAAAEGVSELAESDSDCVPAEAGQA [ZHX2]	0.134	-0.0666
MASLGPAAAGEQASGAEAEPGPAGPPPPPSPSSLGPLLPLQREPLYNWQATKASLKERFAFLFNSELLSDVRFVLGKGRGAAAAGGPQRIPAHRFVLAAGSAVFDAMFNGGMATTSAEIELPDVEPAAFLALLRFLYSDEVQIGPETVMTTLYTAKKYAVPALEAHCVEFLTKHLRADNAFMLLTQARLFDEPQLASLCLDTIDKSTMDAISAEGFTDIDIDTLCAVLERDTLSIRESRLFGAVVRWAEAECQRQQLPVTFGNKQKVLGKALSLIRFPLMTIEEFAAGPAQSGILSDREVVNLFLHFTVNPKPRVEYIDRPRCCLRGKECCINRFQQVESRWGYSGTSDRIRFTVNRRISIVGFGLYGSIHGPTDYQVNIQIIEYEKKQTLGQNDTGFSCDGTANTFRVMFKEPIEILPNVCYTACATLKGPDSHYGTKGLKKVVHETPAASKTVFFFFSSPGNNNGTSIEDGQIPEIIFYT [BTBD1]	-0.225	0.0289
MAST2	0.087	-0.172
MATAPGPAGIAMGSVGSLLERQDFSPEELRAALAGSRGSRQPDGLLRKGLGQREFLSYLHLPKKDSKSTKNTKRAPRNEPADYATLYYREHSRAGDFSKTSLPERGRFDKCRIRPSVFKPTAGNGKGFLSMQSLASHKGQKLWRSNGSLHTLACHPPLSPGPRASQARAQLLHALSLDEGGPEPEPSLSDSSSGGSFGRSPGTGPSPFSSSLGHLNHLGGSLDRASQGPKEAGPPAVLSCLPEPPPPYEFSCSSAEEMGAVLPETCEELKRGLGDEDGSNPFTQVLEERQRLWLAELKRLYVERLHEVTQKAERSERNLQLQLFMAQQEQRRLRKELRAQQGLAPEPRAPGTLPEADPSARPEEEARWEVCQKTAEISLLKQQLREAQAELAQKLAEIFSLKTQLRGSRAQAQAQDAELVRLREAVRSLQEQAPREEAPGSCETDDCKSRGLLGEAGGSEARDSAEQLRAELLQERLRGQEQALRFEQERRTWQEEKERVLRYQREIQGGYMDMYRRNQALEQELRALREPPTPWSPRLESSKI [N4BP3]	0.203	0.334
